Reference: paper PMC2189283

Columns and labels:
[1] = target: LFA-3 surface glycoprotein on the human B-lymphoblastoid line JY (human (endogenous in JY)) (UniProt P19256); assay: flow cytometry on cells
[2] = target: CD2 ligand on sheep erythrocytes (T11TS, the sheep homologue of LFA-3) (sheep (endogenous in sheep erythrocytes))

UniProt P19256, sequence (P19256 29-250): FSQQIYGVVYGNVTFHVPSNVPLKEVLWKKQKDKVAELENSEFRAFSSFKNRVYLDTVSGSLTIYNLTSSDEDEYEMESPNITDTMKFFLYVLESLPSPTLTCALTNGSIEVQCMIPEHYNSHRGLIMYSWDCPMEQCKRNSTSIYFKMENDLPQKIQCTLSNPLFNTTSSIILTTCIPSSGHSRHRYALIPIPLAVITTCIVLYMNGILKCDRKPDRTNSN

Substance: T11ex2, recombinant soluble CD2 (T11) molecule that corresponds to the two extracellular segment exons (domain or fragment)
- percent reduction of specific anti-LFA-3 reactivity at 10 uM T11ex2 [1]: 85%
- half-maximal inhibition of sheep erythrocyte-Jurkat T cell rosettes [2]: 0.63 to 1.25 µM
